In US20250327097A1, “ORGANISMS PRODUCING LESS CROTONIC ACID” (Global Bioenergies, priority 2021, published 2025):
Substitutions are numbered along the chain they refer to. Names may count otherwise.

B1: I283T-P284D-N287P-S322T-N388M-K423C-C430N-L432F-L434W-S436N-A463G-Y469D (protein)
chain: MFLKSLREQINLLKRQGDLRIINRPVDSYLEAAAIIRRSTETKAPVPLMTNIKGYPGCSIVGGLAALSSNPEYPLSRVAMSLGLSTTASAQSIVQYLIDGLKKTPYLPVEIDSNSAPCKQNILRGEDASLAHFPIPQVHQHDGNRYVNTWGVFIVESPDGQWCNWSIQRVQYLNDRQMIALVFPSQHISDIWEEWVKIGKPMPYALVQGCEPIVPYIAGLPLLERNVNEAEYIGALYGKGIEVVKCETHDLRVPASSEVVIEGYFAITREGVEGPFGEFAGYTDNEPSLQPILSITAISWQDDPIWPVVAEGKPVDEYHTCTGIGDAAAIQNVLLTANLPVSFVWVPLYSACHLMIVSINRHWRQTHPDLTSEQLTKKVGDVIHQTRMSIKLPKIVVLDDDVDPADTESLLWALATRIHPERCRYFYESNIFPWLNCYSEEERHNRKGKRVIIDALLPENHGGISSFDDAYPDDIKQRVLMHWETDFSHD
B2: I283T-P284D-N285A-N287P-S322T-N388M-C430N-L432F-L434W-S436N-A463G-Y469D (protein)
chain: B1 chain with N285A, C423K
B3: I283T-P284D-N287P-S322T-N388M-C430N-L432F-L434W-S436T-A463G-Y469D (protein)
chain: B1 chain with C423K, N436T
B4: I283F-P284D-N287P-S322T-N388M-C430N-L432F-L434W-S436N-A463G-Y469D (protein)
chain: B1 chain with T283F, C423K
B5: I283T-P284D-N285L-N287P-S322T-N388M-C430N-L432F-L434W-S436N-A463G-Y469D (protein)
chain: B1 chain with N285L, C423K
B6: I283T-P284D-N285I-N287P-S322T-N388M-C430N-L432F-L434W-S436N-A463G-Y469D (protein)
chain: B1 chain with N285I, C423K
B7: K391I-L432W-L434M (protein)
chain: MFLKSLREQINLLKRQGDLRIINRPVDSYLEAAAIIRRSTETKAPVPLMTNIKGYPGCSIVGGLAALSSNPEYPLSRVAMSLGLSTTASAQSIVQYLIDGLKKTPYLPVEIDSNSAPCKQNILRGEDASLAHFPIPQVHQHDGNRYVNTWGVFIVESPDGQWCNWSIQRVQYLNDRQMIALVFPSQHISDIWEEWVKIGKPMPYALVQGCEPIVPYIAGLPLLERNVNEAEYIGALYGKGIEVVKCETHDLRVPASSEVVIEGYFAITREGVEGPFGEFAGYIPNENSLQPILSITAISWQDDPIWPVVAEGKPVDEYHTCSGIGDAAAIQNVLLTANLPVSFVWVPLYSACHLMIVSINRHWRQTHPDLTSEQLTKKVGDVIHQTRNSIILPKIVVLDDDVDPADTESLLWALATRIHPERKRYFYESCIWPMLSCYSEEERHNRKGKRVIIDALLPENHGAISSFDYAYPDDIKQRVLMHWETDFSHD
B8: N388M-C430S-L432F-L434W-S436A (protein)
chain: B7 chain with N388M, I391K, C430S, W432F, M434W, S436A
B9: C430P-L432F-L434W-S436A (protein)
chain: B7 chain with I391K, C430P, W432F, M434W, S436A
B10: N388M-K394R-L432F-L434W-S436A (protein)
chain: B7 chain with N388M, I391K, K394R, W432F, M434W, S436A
B11: L432F-L434W-S436N (protein)
chain: B7 chain with I391K, W432F, M434W, S436N
B12: N388M-L432F-L434W-S436A (protein)
chain: B7 chain with N388M, I391K, W432F, M434W, S436A
B13: K394R-L432F-L434W-S436N (protein)
chain: B7 chain with I391K, K394R, W432F, M434W, S436N
B14: N388M-L432F-L434W-S436N (protein)
chain: B7 chain with N388M, I391K, W432F, M434W, S436N
B15: C430S-L432F-L434W-S436A (protein)
chain: B7 chain with I391K, C430S, W432F, M434W, S436A
B16: H141Y-N388M-K394R-C430P-L432F-L434W-S436N (protein)
chain: B7 chain with H141Y, N388M, I391K, K394R, C430P, W432F, M434W, S436N
B17: N388M-K394R-C430S-L432F-L434W-S436A (protein)
chain: B7 chain with N388M, I391K, K394R, C430S, W432F, M434W, S436A
B18: N388M-C430A-L432F-L434W-S436N (protein)
chain: B7 chain with N388M, I391K, C430A, W432F, M434W, S436N
B19: C430S-L432F-L434W (protein)
chain: B7 chain with I391K, C430S, W432F, M434W
B20: N388M-K394A-C430P-L432F-L434W-S436N (protein)
chain: B7 chain with N388M, I391K, K394A, C430P, W432F, M434W, S436N
B21: C430P-L432F-L434W-S436N (protein)
chain: B7 chain with I391K, C430P, W432F, M434W, S436N
B22: K394R-C430P-L432F-L434W-S436N (protein)
chain: B7 chain with I391K, K394R, C430P, W432F, M434W, S436N
B23: K394R-C430S-L432F-L434W-S436N (protein)
chain: B7 chain with I391K, K394R, C430S, W432F, M434W, S436N
B24: N388M-L432F-L434W (protein)
chain: B7 chain with N388M, I391K, W432F, M434W
B25: N388M-C430S-L432F-L434W-S436N (protein)
chain: B7 chain with N388M, I391K, C430S, W432F, M434W, S436N
B26: N388M-C430P-L432F-L434W-S436A (protein)
chain: B7 chain with N388M, I391K, C430P, W432F, M434W, S436A
B27: N388M-C430P-L432F-L434W-S436N (protein)
chain: B7 chain with N388M, I391K, C430P, W432F, M434W, S436N
B28: N388M-K394H-C430P-L432F-L434W-S436N (protein)
chain: B7 chain with N388M, I391K, K394H, C430P, W432F, M434W, S436N
B29: N388M-K394R-C430K-L432F-L434W-S436N (protein)
chain: B7 chain with N388M, I391K, K394R, C430K, W432F, M434W, S436N
B30: N388M-K394R-C430P-L432F-L434W-S436A (protein)
chain: B7 chain with N388M, I391K, K394R, C430P, W432F, M434W, S436A
B31: K394R-C430P-L432F-L434W-S436A (protein)
chain: B7 chain with I391K, K394R, C430P, W432F, M434W, S436A
B32: N388M-K394R-C430N-L432F-L434W-S436N (protein)
chain: B7 chain with N388M, I391K, K394R, C430N, W432F, M434W, S436N
B33: N388M-K394R-L432F-L434W-S436N (protein)
chain: B7 chain with N388M, I391K, K394R, W432F, M434W, S436N
B34: K394R-C430S-L432F-L434W-S436A (protein)
chain: B7 chain with I391K, K394R, C430S, W432F, M434W, S436A
B35: L432F-L434W-S436A (protein)
chain: B7 chain with I391K, W432F, M434W, S436A
B36: N388M-K394R-I395V-C430P-L432F-L434W-S436N (protein)
chain: B7 chain with N388M, I391K, K394R, I395V, C430P, W432F, M434W, S436N
B37: K394R-L432F-L434W (protein)
chain: B7 chain with I391K, K394R, W432F, M434W
B38: N388M-K394R-C430P-L432F-L434W-S436N (protein)
chain: B7 chain with N388M, I391K, K394R, C430P, W432F, M434W, S436N
B39: N388M-K394R-C430S-L432F-L434W-S436N (protein)
chain: B7 chain with N388M, I391K, K394R, C430S, W432F, M434W, S436N
B40: C430S-L432F-L434W-S436N (protein)
chain: B7 chain with I391K, C430S, W432F, M434W, S436N
B41: R387A-L432F-L434W-S436A (protein)
chain: B7 chain with R387A, I391K, W432F, M434W, S436A
B42: K394R-L432F-L434W-S436A (protein)
chain: B7 chain with I391K, K394R, W432F, M434W, S436A
B43: N388M-K394C-C430P-L432F-L434W-S436N (protein)
chain: B7 chain with N388M, I391K, K394C, C430P, W432F, M434W, S436N

Tested on: 3-methylcrotonic acid
Assay type: biochemical, Yersinia frederiksenii
Parameters: key: “+” representing a low increase in activity; “++++” representing a high increase in activity

| Molecule | Activity relative to WT |
| --- | --- |
| B1 | ++++ |
| B2 | ++++ |
| B3 | ++++ |
| B4 | ++++ |
| B5 | ++++ |
| B6 | ++++ |
| B7 | + |
| B8 | + |
| B9 | + |
| B10 | + |
| B11 | + |
| B12 | + |
| B13 | + |
| B14 | + |
| B15 | + |
| B16 | + |
| B17 | + |
| B18 | + |
| B19 | + |
| B20 | + |
| B21 | + |
| B22 | + |

| Molecule | Activity relative to WT |
| --- | --- |
| B23 | + |
| B24 | + |
| B25 | + |
| B26 | + |
| B27 | + |
| B28 | + |
| B29 | + |
| B30 | + |
| B31 | + |
| B32 | + |
| B33 | + |
| B34 | + |
| B35 | + |
| B36 | + |
| B37 | + |
| B38 | + |
| B39 | + |
| B40 | + |
| B41 | + |
| B42 | + |
| B43 | + |
